The text below walks through data of patent US20250043001A1 (Xencor, published 2025).

Changes are numbered by the printed parent chain.

One may read the Kd as the concentration at which binding is half-saturated. Low readings indicate higher affinity, high ones lower affinity.

Assay [1] concerns the target T1, human CD28 (human, UniProt P10747 19-152).
T1 construct: also called Cluster of Differentiation 28; Tp44
Put plainly: CD28 affinity as quoted in the text; method not given.

In assay [2] the target is T2, CEACAM5 (UniProt P06731 35-685).
T2 construct: also called carcinoembryonic antigen-related cell adhesion molecule 5; CD66e
T2 sequence (looked up): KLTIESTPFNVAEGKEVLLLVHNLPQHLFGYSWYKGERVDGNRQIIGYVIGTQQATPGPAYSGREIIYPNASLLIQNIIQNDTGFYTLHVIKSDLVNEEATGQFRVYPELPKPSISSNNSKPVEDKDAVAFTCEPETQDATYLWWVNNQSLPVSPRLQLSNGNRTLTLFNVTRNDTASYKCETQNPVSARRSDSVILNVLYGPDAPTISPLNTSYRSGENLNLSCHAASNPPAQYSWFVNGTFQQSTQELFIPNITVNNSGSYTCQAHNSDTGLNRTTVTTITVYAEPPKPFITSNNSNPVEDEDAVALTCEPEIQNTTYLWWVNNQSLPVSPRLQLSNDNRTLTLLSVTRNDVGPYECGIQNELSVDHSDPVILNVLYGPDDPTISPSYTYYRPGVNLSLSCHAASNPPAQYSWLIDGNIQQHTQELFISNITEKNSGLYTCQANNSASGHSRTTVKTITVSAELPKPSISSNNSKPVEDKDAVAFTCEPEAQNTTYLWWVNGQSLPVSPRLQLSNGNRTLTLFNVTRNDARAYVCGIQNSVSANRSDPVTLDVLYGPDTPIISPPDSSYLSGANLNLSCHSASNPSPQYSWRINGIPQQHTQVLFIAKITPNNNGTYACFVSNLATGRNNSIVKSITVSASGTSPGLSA
Put plainly: affinity at 25 C (Octet per FIG. 79 legend). A general note: Biolayer interferometry detects binding as a change in optical thickness at a sensor tip.

Assay [3] has as its target T2, CEACAM5. Put plainly: CEACAM5 affinity as quoted in the text; method not given.
Assay [4] concerns the target T2, CEACAM5. Put plainly: binding affinity (Octet at 25 C per FIG. 80 legend).
The target of assay [5] is T3, CEACAM8 (UniProt P31997 35-320).
T3 sequence (looked up): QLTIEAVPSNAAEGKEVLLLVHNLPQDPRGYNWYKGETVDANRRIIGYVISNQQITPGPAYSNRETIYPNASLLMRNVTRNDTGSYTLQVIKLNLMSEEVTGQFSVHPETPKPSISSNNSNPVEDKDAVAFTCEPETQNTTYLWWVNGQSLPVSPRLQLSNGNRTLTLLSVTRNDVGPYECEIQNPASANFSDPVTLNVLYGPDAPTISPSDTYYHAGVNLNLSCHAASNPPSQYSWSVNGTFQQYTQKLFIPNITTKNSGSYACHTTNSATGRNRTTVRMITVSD
The description is as above.

The target of assay [6] is T1, human CD28. Put plainly: CD28 affinity of the scFv arm as quoted in the text; method not given.
Assay [7] concerns the target T4, STEAP1 (UniProt Q9UHE8 1-339, limits assumed).
T4 construct: whole, on cells; also called Six-Transmembrane Epithelial Antigen of the Prostate 1
Put plainly: flow cytometry, bivalent mAbs on C4-2B cells. Here is the method: Optimized humanized STEAP-A variants were then engineered in order to improve their binding affinity to STEAP-1. In the first round, 82 variant VLs were engineered as L1.4-L1.85 and 151 variant VHs were engineered as H1.39-H1.189. Variants were produced as bivalent mAbs, the sequences for which are depicted in FIG. 30. The bivalent mAbs were then screened for binding to STEAP-1 on C4-2B cells. Cells were mixed with mAbs and incubated for 1 hour on ice, washed with PBS, stained with secondary antibody for 1 hour on ice, and washed again before analyzing binding utilizing flow cytometry.
In the second round, 34 variant VLs were engineered and designated as L1.86-L1.119 and 39 variant VHs were engineered and designated as H1.190-H1.228. Bivalent mAbs from the second round of affinity maturation were also screened for binding to STEAP-1 expressed on C4-2B cells. Flow cytometry analysis was used to determine relative maximum MFI values, AUC values, and approximate EC50 values for each test article, as summarized in FIG. 34. […] A final set of variable heavy domain substitutions were engineered and designated H1.229- H1.232. […] Sequences for each variant VH and VL are depicted in FIGS. 31 and 32, respectively.

Assay [8] concerns the target T1, human CD28. Put plainly: affinity; method not given.

B1: XENP45915 (bispecific antibody)
heavy: EVQLVESGGGLVQPGGSLRLSCAASGFTFTDYYMNWVRQAPGKGLEWVGFIGNKANAYTTEYSASVKGRFTISRDKSKSSLYLQMNSLKTEDTAVYYCTRDRGLRFYFDYWGQGTLVTVSSASTKGPSVFPLAPSSKSTSGGTAALGCLVKDYFPEPVTVSWNSGALTSGVHTFPAVLQSSGLYSLSSVVTVPSSSLGTQTYICNVNHKPSDTKVDKKVEPKSCDKTHTCPPCPAPPVAGPSVFLFPPKPKDTLMISRTPEVTCVVVDVKHEDPEVKFNWYVDGVEVHNAKTKPREEEYNSTYRVVSVLTVLHQDWLNGKEYKCKVSNKALPAPIEKTISKAKGQPREPQVYTLPPSREEMTKNQVSLTCDVSGFYPSDIAVEWESDGQPENNYKTTPPVLDSDGSFFLYSKLTVDKSRWEQGDVFSCSVLHEALHSHYTQKSLSLSPGK
scFv-Fc: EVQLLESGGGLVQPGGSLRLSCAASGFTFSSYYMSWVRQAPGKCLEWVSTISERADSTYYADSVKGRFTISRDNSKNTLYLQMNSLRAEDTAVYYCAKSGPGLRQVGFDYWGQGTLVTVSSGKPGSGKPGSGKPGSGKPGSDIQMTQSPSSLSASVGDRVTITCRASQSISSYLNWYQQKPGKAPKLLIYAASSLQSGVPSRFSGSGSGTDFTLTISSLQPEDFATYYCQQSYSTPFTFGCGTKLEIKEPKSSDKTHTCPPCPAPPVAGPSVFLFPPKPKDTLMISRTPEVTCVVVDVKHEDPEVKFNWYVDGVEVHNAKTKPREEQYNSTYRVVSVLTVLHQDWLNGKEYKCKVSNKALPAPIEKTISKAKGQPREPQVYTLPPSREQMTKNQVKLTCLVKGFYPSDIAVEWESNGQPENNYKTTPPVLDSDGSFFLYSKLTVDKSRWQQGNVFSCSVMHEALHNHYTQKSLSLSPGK
light: EIVLTQSPATLSLSPGERATLSCRASSSVTYIHWYQQKPGQAPKSLIYATSNLASGIPARFSGSGSGTDFTLTISSLEPEDFAVYYCQHWSSKPPTFGGGTKVEIKRTVAAPSVFIFPPSDEQLKSGTASVVCLLNNFYPREAKVQWKVDNALQSGNSQESVTEQDSKDSTYSLSSTLTLSKADYEKHKVYACEVTHQGLSSPVTKSFNRGEC
As for B1, the affinity in assay [1], expressed as Kd, was 26 nM.

B2: XENP44915 (bispecific antibody, human IgG1, kappa)
heavy: B1 heavy
scFv-Fc: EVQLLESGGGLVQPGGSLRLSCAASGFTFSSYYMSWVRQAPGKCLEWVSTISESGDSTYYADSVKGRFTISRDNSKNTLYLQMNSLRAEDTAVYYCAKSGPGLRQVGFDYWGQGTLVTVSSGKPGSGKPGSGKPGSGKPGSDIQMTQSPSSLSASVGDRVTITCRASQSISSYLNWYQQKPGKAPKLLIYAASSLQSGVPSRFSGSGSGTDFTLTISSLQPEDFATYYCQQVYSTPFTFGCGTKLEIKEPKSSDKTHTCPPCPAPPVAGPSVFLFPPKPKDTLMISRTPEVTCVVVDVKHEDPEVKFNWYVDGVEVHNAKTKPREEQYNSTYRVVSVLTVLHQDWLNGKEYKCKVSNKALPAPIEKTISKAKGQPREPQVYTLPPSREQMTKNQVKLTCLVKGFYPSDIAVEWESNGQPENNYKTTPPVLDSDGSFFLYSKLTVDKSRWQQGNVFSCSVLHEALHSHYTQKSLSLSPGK
light: B1 light
The molecule B2 showed a Kd in assay [1] of 130 nM.

B3: CEA-A_H1L2 (antibody, V domains shown)
VH: EVQLVESGGGLVQPGGSLRLSCATSGFTFTDYYMNWVRQAPGKALEWVGFIGNKANGYTTEYSASVKGRFTISRDKSKSSLYLQMNSLKTEDTAVYYCTRDRGLRFYFDYWGQGTLVTVSS
VL: EIVLTQSPATLSLSPGERATLSCRASSSVTYIHWYQQKPGQAPRLLIYATSNLASGIPARFSGSGSGTDFTLTISSLEPEDFAVYYCQHWSSKPPTFGGGTKVEIK
notes: also called HIL2
B3 showed an equilibrium dissociation constant (Kd) in assay [2] of 57 to 69 nM.

B4: XENP44745 (bispecific antibody)
chain 1: B3 VH
chain 2: B3 VL with E1Q, I2T, A42S, L45S, I57V, F70Y
chain 3: not shown
As for B4, the Kd in assay [3] was 5 nM.

B5: XENP44746 (bispecific antibody)
chain 1: B3 VH
chain 2: B3 VL
chain 3: not shown
B5 came in with a Kd in assay [3] of 57 nM. Against the preceding molecule, the Kd is about 11-fold higher.

B6: CEA-A_H1.7_L2.15 (antibody, V domains shown)
VH: B3 VH with T24A, A44G, G57A
VL: B3 VL with R44K, L45S
As to B6, the Kd turned out to be 13 nM in assay [4] and 3330 nM in assay [5].

B7: CEA-A_H1L1 (antibody, V domains shown)
VH: B3 VH
VL: B3 VL with E1Q, I2T, A42S, L45S, I57V, F70Y
notes: also called humanized H1L1
For B7, the Kd in assay [2] lay within 5 to 8 nM.

B8: XENP44332 (bispecific antibody)
heavy: EVKLVESGGGLVQPGGSLRLSCATSGFTFTDYYMNWVRQPPGKALEWLGFIGNKANGYTTEYSASVKGRFTISRDKSQSILYLQMNTLRAEDSATYYCTRDRGLRFYFDYWGQGTTLTVSSASTKGPSVFPLAPSSKSTSGGTAALGCLVKDYFPEPVTVSWNSGALTSGVHTFPAVLQSSGLYSLSSVVTVPSSSLGTQTYICNVNHKPSDTKVDKKVEPKSCDKTHTCPPCPAPPVAGPSVFLFPPKPKDTLMISRTPEVTCVVVDVKHEDPEVKFNWYVDGVEVHNAKTKPREEEYNSTYRVVSVLTVLHQDWLNGKEYKCKVSNKALPAPIEKTISKAKGQPREPQVYTLPPSREEMTKNQVSLTCDVSGFYPSDIAVEWESDGQPENNYKTTPPVLDSDGSFFLYSKLTVDKSRWEQGDVFSCSVMHEALHNHYTQKSLSLSPGK
scFv-Fc: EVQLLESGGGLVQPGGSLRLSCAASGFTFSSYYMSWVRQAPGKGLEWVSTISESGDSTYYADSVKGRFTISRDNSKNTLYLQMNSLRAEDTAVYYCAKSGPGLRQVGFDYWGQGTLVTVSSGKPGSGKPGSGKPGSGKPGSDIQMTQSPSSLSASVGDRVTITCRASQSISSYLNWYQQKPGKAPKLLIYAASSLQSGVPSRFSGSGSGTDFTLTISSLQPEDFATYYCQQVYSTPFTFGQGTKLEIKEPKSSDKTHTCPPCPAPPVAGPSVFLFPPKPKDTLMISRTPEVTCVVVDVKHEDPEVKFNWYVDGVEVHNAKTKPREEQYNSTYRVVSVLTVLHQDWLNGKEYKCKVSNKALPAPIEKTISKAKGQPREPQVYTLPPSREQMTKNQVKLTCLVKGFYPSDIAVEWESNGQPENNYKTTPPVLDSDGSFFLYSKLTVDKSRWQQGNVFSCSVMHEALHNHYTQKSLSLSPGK
light: QTVLSQSPAILSASPGEKVTMTCRASSSVTYIHWYQQKPGSSPKSWIYATSNLASGVPARFSGSGSGTSYSLTISRVEAEDAATYYCQHWSSKPPTFGGGTKLEIKRTVAAPSVFIFPPSDEQLKSGTASVVCLLNNFYPREAKVQWKVDNALQSGNSQESVTEQDSKDSTYSLSSTLTLSKADYEKHKVYACEVTHQGLSSPVTKSFNRGEC
For the molecule B8, the Kd in assay [6] is 37 nM.

B9: XENP44338 (bispecific antibody)
heavy: B8 heavy
scFv-Fc: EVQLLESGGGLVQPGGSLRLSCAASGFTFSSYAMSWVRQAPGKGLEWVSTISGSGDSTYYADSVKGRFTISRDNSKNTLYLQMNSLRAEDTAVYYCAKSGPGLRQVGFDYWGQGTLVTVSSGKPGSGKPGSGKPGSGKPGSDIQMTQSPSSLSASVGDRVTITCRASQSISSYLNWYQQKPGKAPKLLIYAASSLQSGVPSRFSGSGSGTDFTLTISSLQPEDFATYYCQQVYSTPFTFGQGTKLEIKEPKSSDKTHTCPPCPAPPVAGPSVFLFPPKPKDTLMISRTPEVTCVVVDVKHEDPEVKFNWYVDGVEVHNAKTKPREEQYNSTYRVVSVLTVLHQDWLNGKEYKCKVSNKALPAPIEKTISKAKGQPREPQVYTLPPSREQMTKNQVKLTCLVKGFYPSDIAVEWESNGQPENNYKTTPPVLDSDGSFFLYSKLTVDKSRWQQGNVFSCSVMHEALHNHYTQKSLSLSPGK
light: B8 light
In assay [3], B9 yielded a Kd of approximately 0.7 nM.

B10: XENP44560 (bispecific antibody)
heavy: B8 heavy
scFv-Fc: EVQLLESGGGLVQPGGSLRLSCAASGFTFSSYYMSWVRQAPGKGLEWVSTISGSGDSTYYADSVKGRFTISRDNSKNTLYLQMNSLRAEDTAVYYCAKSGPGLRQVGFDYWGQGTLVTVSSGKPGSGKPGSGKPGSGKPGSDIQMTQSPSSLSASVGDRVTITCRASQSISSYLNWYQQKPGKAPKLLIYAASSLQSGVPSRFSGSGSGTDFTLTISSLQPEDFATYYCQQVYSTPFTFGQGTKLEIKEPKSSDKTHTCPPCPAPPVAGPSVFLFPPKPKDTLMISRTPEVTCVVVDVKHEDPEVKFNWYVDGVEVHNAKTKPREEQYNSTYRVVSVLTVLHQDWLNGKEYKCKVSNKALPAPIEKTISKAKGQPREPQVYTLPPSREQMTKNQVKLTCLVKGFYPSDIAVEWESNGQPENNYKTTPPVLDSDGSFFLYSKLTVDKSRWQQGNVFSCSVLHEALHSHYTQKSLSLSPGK
light: B8 light
notes: copies: 1 + 1 + 1
As to B10, the equilibrium dissociation constant (Kd) in assay [6] is 96 nM.

B11: XENP46500 (antibody, human IgG1, kappa, V domains shown)
VH: QVQVQESGPGLVKPSQTLSLTCTVSGYSITSDYAWNWIRQPPGKKLEWIGYISNSGSTSYNPSLKSRVTISRDTSKNQFSLKLSSVTAADTAVYYCARERNYDYELYYYAMDYWGQGTLVTVSS
VL: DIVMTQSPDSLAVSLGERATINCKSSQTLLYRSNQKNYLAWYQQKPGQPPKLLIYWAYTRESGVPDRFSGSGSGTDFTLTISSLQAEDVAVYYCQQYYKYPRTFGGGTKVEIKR
notes: also called H1.21 and L1.115; copies: 2 + 2
Regarding B11, the binding result in assay [7] is “binds”.

B12: XENP45835 (antibody, V domains shown)
VH: B11 VH with E105D, L106D
VL: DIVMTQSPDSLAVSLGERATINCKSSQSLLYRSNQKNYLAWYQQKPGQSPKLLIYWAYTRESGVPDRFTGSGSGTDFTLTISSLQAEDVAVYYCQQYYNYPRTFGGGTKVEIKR
notes: also called L1.56; H1 and L1.56; copies: 2 + 2
With B12, in assay [7], the binding result is “binds”.

B13: CEA-A_H0L0 (antibody, V domains shown)
VH: EVKLVESGGGLVQPGGSLRLSCATSGFTFTDYYMNWVRQPPGKALEWLGFIGNKANGYTTEYSASVKGRFTISRDKSQSILYLQMNTLRAEDSATYYCTRDRGLRFYFDYWGQGTTLTVSS
VL: QTVLSQSPAILSASPGEKVTMTCRASSSVTYIHWYQQKPGSSPKSWIYATSNLASGVPARFSGSGSGTSYSLTISRVEAEDAATYYCQHWSSKPPTFGGGTKLEIK
notes: also called parental CEA-A
Take B13: the equilibrium dissociation constant (Kd) in assay [2] fell in the range of 0.7 to 2 nM.

B14: 1A7_H1.14_L1 (antibody, V domains shown)
VH: EVQLLESGGGLVQPGGSLRLSCAASGFTFSSYYMSWVRQAPGKGLEWVSTISESGDSTYYADSVKGRFTISRDNSKNTLYLQMNSLRAEDTAVYYCAKSGPGLRQVGFDYWGQGTLVTVSS
VL: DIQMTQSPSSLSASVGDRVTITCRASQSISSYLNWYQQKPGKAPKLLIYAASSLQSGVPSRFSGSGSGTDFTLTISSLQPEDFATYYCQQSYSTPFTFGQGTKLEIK
notes: Anti-CD28 VH/VL pair; also called 1A7[CD28]_H1.14_L1
B14 had a Kd in assay [8] of approximately 200 nM.
